According to patent EP1745799B1:

Target: ΔEGFR (extracellular-deleted mutant human EGFR) (human) (UniProt P00533)
Experiment: cell-based or functional assay

decrease of the phosphorylation content of immunoprecipitated p155ΔEGFR monomers (scanning densitometry, PY-20 blot of mAb Δ124 immunoprecipitates): 33.7%
ratio of PTyr/ΔEGFRs (scanning densitometry): 1.04
Substance: T691stop neu (ectodomain-derived, carboxyl-terminal deletion mutant of the rat p185neu oncogene) (from UniProt P06494 23-687) (receptor)
